These results are taken from patent WO2012172495A1 (dated 2012).

Assay [1] concerns the target T1, purified recombinant hTEM8(ED)-Fc fusion protein, biotinylated (human, UniProt Q9H6X2 33-321, biotinylated (site not stated)).
T1 construct: also called human TEM8-Fc
T1 sequence: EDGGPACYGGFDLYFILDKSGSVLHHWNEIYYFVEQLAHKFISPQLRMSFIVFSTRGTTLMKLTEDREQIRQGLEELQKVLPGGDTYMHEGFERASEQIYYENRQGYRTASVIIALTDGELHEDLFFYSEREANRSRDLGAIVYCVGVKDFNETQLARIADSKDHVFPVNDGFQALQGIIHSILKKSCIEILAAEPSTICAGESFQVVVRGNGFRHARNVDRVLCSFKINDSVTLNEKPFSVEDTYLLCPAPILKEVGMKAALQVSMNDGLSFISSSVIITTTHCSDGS
Description: ELISA, Fab on biotinylated human TEM8-Fc. (ELISA stands for enzyme-linked immunosorbent assay.)

Assay [2] concerns the target T2, human TEM8 on transfected HEK-293 cells (293/Flag-hTEM8) (human, UniProt Q9H6X2 33-564).
T2 construct: also called HEK-293 transfected with human TEM8
The assay can be described thus: immunofluorescence microscopy, 10 ug/ml Fab on HEK-293 cells transfected with human TEM8, against untransfected HEK-293.

B1: L5 Fab fragment (Anti-human TEM8_cl4) (Fab, V domains shown)
VH: QVQLVESGGGLVQPGGSLRLSCAASGFTFNSYGLSWVRQAPGKGLEWVSNISSNGSYTYYADSVKGRFTISRDNSKNTLYLQMNSLRAEDTAVYYCARAGYGLFDVWGQGTLVTVSS
VL: DIELTQPPSVSVAPGQTARISCSGDKLREYYVHWYQQKPGQAPVLVIYGDNKRPSGIPERFSGSNSGNTATLTISGTQAEDEADYYCSSWAGSRSGTVFGGGTKLTVL
notes: Tested as a purified Fab fragment; The light chain is lambda
Regarding B1, the binding result in assay [1] and in assay [2] was “binds” in each case.
